Results: patent US20170015742A1 (published 2017)

Legend:
[1] = biological target: recombinant human VEGF165 (human, UniProt P15692 207-395); experiment: cell-based or functional assay
[2] = biological target: recombinant human PDGF-BB (human, UniProt P01127 82-190); experiment: cell-based or functional assay
[3] = biological target: T1, recombinant human VEGF-A 165 (human, UniProt P15692 207-395); experiment: receptor competition ELISA, biotinylated hVEGF165 binding to coated hVEGF-R2-Fc
T1 construct: also called huVEGF-A165; hVEGF165
Experimental: To identify molecules that could block the binding of hVEGF₁₆₅ to the hVEGF-R2 (KDR/Flk-1) receptor, a competition ELISA was performed. […] Plates were then washed four times with wash buffer (TBS, 0.05% Tween-20) and blocked with Superblock blocking buffer (Thermo Scientific, cat#37535). […] The pre-incubated sample/hVEGF₁₆₅ complex was added to the coated plate at 50 μL in duplicate and incubated for 30 minutes at 25° C. with shaking. Following incubation, plates were washed four times with wash buffer. Streptavidin-polyHRP-40 (Fitzgerald cal#65r-s104phrp) was diluted in assay diluent (10% Superblock containing 0.05% surfactamps) and added to plates (50 μL) for 45 minutes at 25° C. with shaking. Plates were washed four times with wash buffer and developed with the addition of Enhanced K-blue TMB substrate (Neogen cat#308177). The reaction was stopped with 2N sulfuric acid (VWR, cat# BDH3500-1) and the absorbance was read at 450 nm-570 nm. A decrease in observed optical density indicates the test molecule is blocking the hVEGF₁₆₅ binding to the hVEGF-R2-Fc. Data was analyzed using Softmax Pro 4.8 software and IC₅₀ values calculated using a sigmoidal dose response (variable slope) fit in GraphPad Prism 5.
Anti-VEGF-A antibodies derived from rat hybridomas were characterized for binding, function and cross-reactivity in a panel of assays. Supernatants were tested for the ability to bind hVEGF₁₆₅ (Example 1.3) and block binding of hVEGF₁₆₅ to hVEGFR2 in a competition ELISA format (Example 1.4).

T1 sequence (P15692 other isoform, or with tags, fused parts or gaps limits assumed): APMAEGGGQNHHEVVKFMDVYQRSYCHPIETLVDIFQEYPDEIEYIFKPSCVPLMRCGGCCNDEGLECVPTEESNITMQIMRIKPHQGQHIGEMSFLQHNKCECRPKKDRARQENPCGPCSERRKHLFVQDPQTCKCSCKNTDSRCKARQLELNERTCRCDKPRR
recombinant human VEGF165, sequence (P15692 other isoform, or with tags, fused parts or gaps limits assumed): as above

HMVEC-d hVEGF165 Potency IC50 [1] [nM] | NIH-3T3 hPDGF-BB Potency IC50 [2] [nM] | IC50 [3] [nM] | Binder
0.104 | 0.075 |  | CODV015 cross-over DVD-Ig (PR-1571827) (bispecific antibody, human IgG1, kappa, L234A L235A) heavy: EVQLVQSGSELKKPGASVKVSCKASGYTFTNYGMYWVRQAPGQGLEWMGWINTETGKPTYADDFKGRFVFSLDTSVSTAYLQISSLKAEDTAVYYCARTNYYYRSYIFYFDYWGQGTMVTVSSGGGGSGGGEFVLTQSPGTLSLSPGERATLSCERSSGDIGDSYVSWYQQKPGQAPRLVIYADDQRPSGIPDRFSGSGSGTDFTLTISRLEPEDFAVYYCQSYDINIDIVFGGGTKVEIKGGGSGASTKGPSVFPLAPSSKSTSGGTAALGCLVKDYFPEPVTVSWNSGALTSGVHTFPAVLQSSGLYSLSSVVTVPSSSLGTQTYICNVNHKPSNTKVDKKVEPKSCDKTHTCPPCPAPEAAGGPSVFLFPPKPKDTLMISRTPEVTCVVVDVSHEDPEVKFNWYVDGVEVHNAKTKPREEQYNSTYRVVSVLTVLHQDWLNGKEYKCKVSNKALPAPIEKTISKAKGQPREPQVYTLPPSREEMTKNQVSLTCLVKGFYPSDIAVEWESNGQPENNYKTTPPVLDSDGSFFLYSKLTVDKSRWQQGNVFSCSVMHEALHNAYTQKSLSLSPGK light: EVTLRESGPALVKPTQTLTLTCTFSGFSLSTYGMGVGWIRQPPGKALEWLANIWWDDDKYYNPSLKNRLTISKDTSKNQVVLTMTNMDPVDTATYYCARIESIGTTYSFDYWGQGTMVTVSSGGGGSGGGDTVLTQSPATLSLSPGERATLSCRASESVSTHMHWYQQKPGQAPRLLIYGASNLESGVPARFSGSGSGTDFTLTISSLEPEDFAVYFCQQSWNDPFTFGQGTKLEIKGGSRTVAAPSVFIFPPSDEQLKSGTASVVCLLNNFYPREAKVQWKVDNALQSGNSQESVTEQDSKDSTYSLSSTLTLSKADYEKHKVYACEVTHQGLSSPVTKSFNRGEC
0.115 | 0.096 |  | CODV016 cross-over DVD-Ig (PR-1571828) (bispecific antibody, human IgG1, kappa, L234A L235A) heavy: EVQLVQSGSELKKPGASVKVSCKASGYTFTNYGMYWVRQAPGQGLEWMGWINTETGKPTYADDFKGRFVFSLDTSVSTAYLQISSLKAEDTAVYYCARTNYYYRSYIFYFDYWGQGTMVTVSSGGGGSGGGEFVLTQSPGTLSLSPGERATLSCERSSGDIGDSYVSWYQQKPGQAPRLVIYADDQRPSGIPDRFSGSGSGTDFTLTISRLEPEDFAVYYCQSYDINIDIVFGGGTKVEIKGGGSGASTKGPSVFPLAPSSKSTSGGTAALGCLVKDYFPEPVTVSWNSGALTSGVHTFPAVLQSSGLYSLSSVVTVPSSSLGTQTYICNVNHKPSNTKVDKKVEPKSCDKTHTCPPCPAPEAAGGPSVFLFPPKPKDTLMISRTPEVTCVVVDVSHEDPEVKFNWYVDGVEVHNAKTKPREEQYNSTYRVVSVLTVLHQDWLNGKEYKCKVSNKALPAPIEKTISKAKGQPREPQVYTLPPSREEMTKNQVSLTCLVKGFYPSDIAVEWESNGQPENNYKTTPPVLDSDGSFFLYSKLTVDKSRWQQGNVFSCSVMHEALHNAYTQKSLSLSPGK light: EVTLRESGPALVKPTQTLTLTCTFSGFSLSTYGMGVGWIRQPPGKALEWLANIWWDDDKYYNPSLKNRLTISKDTSKNQVVLTMTNMDPVDTATYYCARIESIGTTYSFDYWGQGTMVTVSSGGGGSDTVLTQSPATLSLSPGERATLSCRASESVSTHMHWYQQKPGQAPRLLIYGASNLESGVPARFSGSGSGTDFTLTISSLEPEDFAVYFCQQSWNDPFTFGQGTKLEIKGGSRTVAAPSVFIFPPSDEQLKSGTASVVCLLNNFYPREAKVQWKVDNALQSGNSQESVTEQDSKDSTYSLSSTLTLSKADYEKHKVYACEVTHQGLSSPVTKSFNRGEC
 |  | 0.124 | BEW-3A1-D10-G9 (antibody, V domains shown, Rat hybridoma anti-human VEGF-A monoclonal antibody, isotype IgG2b/kappa) VH: QVQLEQSGAELVKPGTSVKLSCMASGYTSSSNHMNWMKQTTGQGLEWIGIINPGSGGTRYNVKFEGKATLTVDKSSSTAFMQLNSLTPEDSAVYYCARAGFPGPFSYYAMGAWGQGTSVTVSS VL: DIQMTQSPPVLSASVGDRVTLSCKASQNIHNNLDWYQQKHGEAPKLLIFYTNNLQTGIPSRFSGSGSGTDYTLTISSLQPEDVATYYCYQYNSGYTFGAGTKLELK
 |  | 0.13 | BED-4G10-C8 (antibody, V domains shown, Rat hybridoma anti-human VEGF-A monoclonal antibody, isotype IgG2b/kappa) VH: QVQLQQSGTELVKPGSSVKISCKASGYTFTSNYMHWIRQQPGNGLEWIGWIYPGDGDTNYNHNFNGKATLTADKSSSTAYMQLSSLTSEDFAVYFCASSTRAIPGWFTYWGQGTLVTVSS VL: DTVLTQSPALAVSPGERVSISCWASESVSTLMHWYQQKLGQQPKLLIYGASNLESGVPARFRGSGSGTDFTLTIDPVEADDTATYFCQQSWSDPYTFGAGTKLELK
 |  | 0.13 | BDB-4G8-D4 (antibody, V domains shown, Rat hybridoma anti-human VEGF-A monoclonal antibody, isotype IgG2b/kappa) VH: QIQLVQSGPELKKPGESVKISCKASGYTFTNYGMYWVKQAPGQGLQYMGWINTETGKPTYADDFKGRFVFFLETSASTAYLQINNLKNEDMATYFCARTNYYYRSYIFYFDYWGQGTMVTVSS VL: DTVLTQSPALAVSPGERVSISCRASESVSTHMHWYQQKPGQQPKLLIYGASNLESGVPARFSGSGSGTDFTLTIDPVEADDTATYFCQQSWNDPFTFGAVTKLELK
 |  | 0.326 | BEW-1B10-B9-C3 (antibody, V domains shown, Rat hybridoma anti-human VEGF-A monoclonal antibody, isotype IgG2a/kappa) VH: EVQLVESGGGLVQPGRSLKLSCAASGFSFSKYDMAWFRQTPTKGLEWVASITTSGVGTYYRDSVKGRFTVSRDNAKSTLYLQMDSLRSEDTATYYCARGYGAMDAWGQGTSVTVSS VL: DIQMTQSPASLSASLEEIVTITCKASQDIDDYLSWYQQKPGKSPQLVIYAATRLADGVPSRFSGSGSGTQYSLKISRLQVDDSGIYYCLQSSSTPWTFGGGTNLELK
 |  | 0.155 | BEW-9C2-D6 (antibody, V domains shown, Rat hybridoma anti-human VEGF-A monoclonal antibody, isotype IgG2b/kappa) VH: QIQLVQSGPELKKPGESVKVSCKASGYTFTNYGIHWVKQAPGQGLQYVGWINTETGRPTYADDFKGRFVFFLETSASTAYLQINNLKNEDMATYFCARPLYYGYAHYFDYWGQGVMVTVSS VL: DIQMTQSPASLSASLEEIVTITCQASQDIGNWLAWYQQKPGKSPQLLIYGATSLADGVPSRFSGSRSGTQYSLKISRLQVEDIGIYYCQQASSVTYTFGAGTKLELK
 |  | 0.207 | BEW-9E7-B4 (antibody, V domains shown, Rat hybridoma anti-human VEGF-A monoclonal antibody, isotype IgG2b/kappa) VH: QIQLVQSGPELKKPGESVKISCKASGYTFTNYGMYWVKQAPGQGLQYMGWIDTETGKPTYADDFKGRFVFFLETSASTAYLQINNLRNEDMATYFCARWGYTSDYYYGWFPDWGQGTLVTVST VL: DTVLTQSPALAVSPGERVSISCRASEGVNSYMHWYQQNPGQQPKLLIYKASNLASGVPARFSGSGSGTDFTLNIHPVEADDTATYFCQQNWNVPLTFGSGTKLEIK
 |  | 0.127 | BEW-9D2-E8 (antibody, V domains shown, Rat hybridoma anti-human VEGF-A monoclonal antibody, isotype IgG2a/kappa) VH: QIQLVQSGPELKKPGESVKISCKASGYTFTNYGMYWVKLAPGQGLQYLGWINTETGKPTYADDFKGRFVFFLETSASTAYLQINNLRNEDMATYFCARPSDYYDGFWFAYWGQGTLVTVSS VL: DTVLTQSPALTVSPGERVSISCRASEWVNSYMHWYQQNPGQQPKLLIYKASNLASGVPARFSGSGSGTDFTLTLDPVEADDTATYFCQQSWNDPLTFGSGTKLEIK
